Starred links: 1 amine or outer side, 2 acyl side, 3 side chain; linkers in the order of their positions; H or OH if unused. Non-standard residues stand in square brackets, D forms with d. Groups on a side chain read outwards from the residue. No end group written: not given here. *: point of attachment. γGlu = O=C(O)[C@H](CCC(=O)[*:2])N[*:1]; Palmitoyl = CCCCCCCCCCCCCCCC(=O)*; αMeF = C[C@](N)(Cc1ccccc1)C(=O)O; αMeK = C[C@](N)(CCCCN)C(=O)O; αMeS = C[C@](N)(CO)C(=O)O; Aib = CC(C)(N)C(=O)O
T1: glucose-dependent insulinotropic peptide (gastric inhibitory polypeptide) receptor (GIPR) (human, UniProt P48546 22-466)
T1 sequence (looked up): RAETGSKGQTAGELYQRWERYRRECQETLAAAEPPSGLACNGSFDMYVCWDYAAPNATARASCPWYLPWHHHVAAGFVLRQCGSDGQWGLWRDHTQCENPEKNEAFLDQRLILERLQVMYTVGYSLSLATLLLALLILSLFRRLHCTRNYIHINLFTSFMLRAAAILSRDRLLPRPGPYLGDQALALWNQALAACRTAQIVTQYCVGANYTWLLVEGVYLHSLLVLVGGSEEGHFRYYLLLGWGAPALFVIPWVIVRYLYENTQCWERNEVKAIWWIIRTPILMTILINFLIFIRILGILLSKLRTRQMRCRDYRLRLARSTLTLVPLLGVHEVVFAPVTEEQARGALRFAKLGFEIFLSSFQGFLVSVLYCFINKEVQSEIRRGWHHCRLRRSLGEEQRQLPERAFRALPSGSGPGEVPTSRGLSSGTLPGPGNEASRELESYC

B1: SEQ ID NO 88 (peptide)
peptide: HXEGSFTSDVSKFLEGEAAKEFIAFVVKGG
modifications: Aib 2; α-MeF 6, 13, 22, 25; α-MeS 11; α-MeK 20, 28; K(ε-γE-Palmitoyl) 12; C-terminal amide
B2: SEQ ID NO 86 (peptide)
peptide: H[Aib]EGS[αMeF]TSDV[αMeS]S[αMeF]K([γGlu-Palmitoyl])EGEAA[αMeK]E[αMeF]IA[αMeF]VV[αMeK]GG-NH2
modifications: N-terminus assumed
SMILES: CCCCCCCCCCCCCCCC(=O)N[C@@H](CCC(=O)NCCCC[C@H](NC(=O)[C@](C)(Cc1ccccc1)NC(=O)[C@H](CO)NC(=O)[C@](C)(CO)NC(=O)[C@@H](NC(=O)[C@H](CC(=O)O)NC(=O)[C@H](CO)NC(=O)[C@@H](NC(=O)[C@](C)(Cc1ccccc1)NC(=O)[C@H](CO)NC(=O)CNC(=O)[C@H](CCC(=O)O)NC(=O)C(C)(C)NC(=O)[C@@H](N)Cc1c[nH]cn1)[C@@H](C)O)C(C)C)C(=O)N[C@@H](CCC(=O)O)C(=O)NCC(=O)N[C@@H](CCC(=O)O)C(=O)N[C@@H](C)C(=O)N[C@@H](C)C(=O)N[C@@](C)(CCCCN)C(=O)N[C@@H](CCC(=O)O)C(=O)N[C@@](C)(Cc1ccccc1)C(=O)N[C@H](C(=O)N[C@@H](C)C(=O)N[C@@](C)(Cc1ccccc1)C(=O)N[C@H](C(=O)N[C@H](C(=O)N[C@@](C)(CCCCN)C(=O)NCC(=O)NCC(N)=O)C(C)C)C(C)C)[C@@H](C)CC)C(=O)O
B3: SEQ ID NO 83 (peptide)
peptide: H[Aib]EGS[αMeF]TSDV[αMeS]S[αMeF]LEGK([γGlu-Palmitoyl])AA[αMeK]E[αMeF]IA[αMeF]VV[αMeK]GG-NH2
modifications: N-terminus assumed
SMILES: CCCCCCCCCCCCCCCC(=O)N[C@@H](CCC(=O)NCCCC[C@H](NC(=O)CNC(=O)[C@H](CCC(=O)O)NC(=O)[C@H](CC(C)C)NC(=O)[C@](C)(Cc1ccccc1)NC(=O)[C@H](CO)NC(=O)[C@](C)(CO)NC(=O)[C@@H](NC(=O)[C@H](CC(=O)O)NC(=O)[C@H](CO)NC(=O)[C@@H](NC(=O)[C@](C)(Cc1ccccc1)NC(=O)[C@H](CO)NC(=O)CNC(=O)[C@H](CCC(=O)O)NC(=O)C(C)(C)NC(=O)[C@@H](N)Cc1c[nH]cn1)[C@@H](C)O)C(C)C)C(=O)N[C@@H](C)C(=O)N[C@@H](C)C(=O)N[C@@](C)(CCCCN)C(=O)N[C@@H](CCC(=O)O)C(=O)N[C@@](C)(Cc1ccccc1)C(=O)N[C@H](C(=O)N[C@@H](C)C(=O)N[C@@](C)(Cc1ccccc1)C(=O)N[C@H](C(=O)N[C@H](C(=O)N[C@@](C)(CCCCN)C(=O)NCC(=O)NCC(N)=O)C(C)C)C(C)C)[C@@H](C)CC)C(=O)O
B4: SEQ ID NO 85 (peptide)
peptide: H[Aib]EGS[αMeF]TSDV[αMeS]S[αMeF]LK([γGlu-Palmitoyl])GEAA[αMeK]E[αMeF]IA[αMeF]VV[αMeK]GG-NH2
modifications: N-terminus assumed
SMILES: CCCCCCCCCCCCCCCC(=O)N[C@@H](CCC(=O)NCCCC[C@H](NC(=O)[C@H](CC(C)C)NC(=O)[C@](C)(Cc1ccccc1)NC(=O)[C@H](CO)NC(=O)[C@](C)(CO)NC(=O)[C@@H](NC(=O)[C@H](CC(=O)O)NC(=O)[C@H](CO)NC(=O)[C@@H](NC(=O)[C@](C)(Cc1ccccc1)NC(=O)[C@H](CO)NC(=O)CNC(=O)[C@H](CCC(=O)O)NC(=O)C(C)(C)NC(=O)[C@@H](N)Cc1c[nH]cn1)[C@@H](C)O)C(C)C)C(=O)NCC(=O)N[C@@H](CCC(=O)O)C(=O)N[C@@H](C)C(=O)N[C@@H](C)C(=O)N[C@@](C)(CCCCN)C(=O)N[C@@H](CCC(=O)O)C(=O)N[C@@](C)(Cc1ccccc1)C(=O)N[C@H](C(=O)N[C@@H](C)C(=O)N[C@@](C)(Cc1ccccc1)C(=O)N[C@H](C(=O)N[C@H](C(=O)N[C@@](C)(CCCCN)C(=O)NCC(=O)NCC(N)=O)C(C)C)C(C)C)[C@@H](C)CC)C(=O)O
B5: SEQ ID NO 84 (peptide)
peptide: H[Aib]EGS[αMeF]TSDV[αMeS]S[αMeF]LEK([γGlu-Palmitoyl])EAA[αMeK]E[αMeF]IA[αMeF]VV[αMeK]GG-NH2
modifications: N-terminus assumed
SMILES: CCCCCCCCCCCCCCCC(=O)N[C@@H](CCC(=O)NCCCC[C@H](NC(=O)[C@H](CCC(=O)O)NC(=O)[C@H](CC(C)C)NC(=O)[C@](C)(Cc1ccccc1)NC(=O)[C@H](CO)NC(=O)[C@](C)(CO)NC(=O)[C@@H](NC(=O)[C@H](CC(=O)O)NC(=O)[C@H](CO)NC(=O)[C@@H](NC(=O)[C@](C)(Cc1ccccc1)NC(=O)[C@H](CO)NC(=O)CNC(=O)[C@H](CCC(=O)O)NC(=O)C(C)(C)NC(=O)[C@@H](N)Cc1c[nH]cn1)[C@@H](C)O)C(C)C)C(=O)N[C@@H](CCC(=O)O)C(=O)N[C@@H](C)C(=O)N[C@@H](C)C(=O)N[C@@](C)(CCCCN)C(=O)N[C@@H](CCC(=O)O)C(=O)N[C@@](C)(Cc1ccccc1)C(=O)N[C@H](C(=O)N[C@@H](C)C(=O)N[C@@](C)(Cc1ccccc1)C(=O)N[C@H](C(=O)N[C@H](C(=O)N[C@@](C)(CCCCN)C(=O)NCC(=O)NCC(N)=O)C(C)C)C(C)C)[C@@H](C)CC)C(=O)O
B6: SEQ ID NO 89 (peptide)
peptide: H[Aib]EGS[αMeF]TSDVK([γGlu-Palmitoyl])S[αMeF]LEGEAA[αMeK]E[αMeF]IA[αMeF]VV[αMeK]GG-NH2
modifications: N-terminus assumed
SMILES: CCCCCCCCCCCCCCCC(=O)N[C@@H](CCC(=O)NCCCC[C@H](NC(=O)[C@@H](NC(=O)[C@H](CC(=O)O)NC(=O)[C@H](CO)NC(=O)[C@@H](NC(=O)[C@](C)(Cc1ccccc1)NC(=O)[C@H](CO)NC(=O)CNC(=O)[C@H](CCC(=O)O)NC(=O)C(C)(C)NC(=O)[C@@H](N)Cc1c[nH]cn1)[C@@H](C)O)C(C)C)C(=O)N[C@@H](CO)C(=O)N[C@@](C)(Cc1ccccc1)C(=O)N[C@@H](CC(C)C)C(=O)N[C@@H](CCC(=O)O)C(=O)NCC(=O)N[C@@H](CCC(=O)O)C(=O)N[C@@H](C)C(=O)N[C@@H](C)C(=O)N[C@@](C)(CCCCN)C(=O)N[C@@H](CCC(=O)O)C(=O)N[C@@](C)(Cc1ccccc1)C(=O)N[C@H](C(=O)N[C@@H](C)C(=O)N[C@@](C)(Cc1ccccc1)C(=O)N[C@H](C(=O)N[C@H](C(=O)N[C@@](C)(CCCCN)C(=O)NCC(=O)NCC(N)=O)C(C)C)C(C)C)[C@@H](C)CC)C(=O)O
B7: SEQ ID NO 87 (peptide)
peptide: H[Aib]EGS[αMeF]TSDV[αMeS]SK([γGlu-Palmitoyl])LEGEAA[αMeK]E[αMeF]IA[αMeF]VV[αMeK]GG-NH2
modifications: N-terminus assumed
SMILES: CCCCCCCCCCCCCCCC(=O)N[C@@H](CCC(=O)NCCCC[C@H](NC(=O)[C@H](CO)NC(=O)[C@](C)(CO)NC(=O)[C@@H](NC(=O)[C@H](CC(=O)O)NC(=O)[C@H](CO)NC(=O)[C@@H](NC(=O)[C@](C)(Cc1ccccc1)NC(=O)[C@H](CO)NC(=O)CNC(=O)[C@H](CCC(=O)O)NC(=O)C(C)(C)NC(=O)[C@@H](N)Cc1c[nH]cn1)[C@@H](C)O)C(C)C)C(=O)N[C@@H](CC(C)C)C(=O)N[C@@H](CCC(=O)O)C(=O)NCC(=O)N[C@@H](CCC(=O)O)C(=O)N[C@@H](C)C(=O)N[C@@H](C)C(=O)N[C@@](C)(CCCCN)C(=O)N[C@@H](CCC(=O)O)C(=O)N[C@@](C)(Cc1ccccc1)C(=O)N[C@H](C(=O)N[C@@H](C)C(=O)N[C@@](C)(Cc1ccccc1)C(=O)N[C@H](C(=O)N[C@H](C(=O)N[C@@](C)(CCCCN)C(=O)NCC(=O)NCC(N)=O)C(C)C)C(C)C)[C@@H](C)CC)C(=O)O

Target: GLP-1 receptor (GLP-1R) (human, UniProt P43220 24-463)
Test: cell-based or functional assay

| cAMP Mean pM GLP-1R [pM] | cAMP Primary assay EC50 GLP-1R n1 [nM] | cAMP Primary assay EC50 GLP-1R n2 [nM] | Binder |
| --- | --- | --- | --- |
| 5 | 0.0043 | 0.0057 | B1 |
| 1.5 | 0.0013 | 0.0017 | B2 |
| 3.6 | 0.0032 | 0.004 | B3 |
| 101 | 0.066 | 0.14 | B4 |
| 8 | 0.0078 | 0.0081 | B5 |
| 548 | 0.45 | 0.65 | B6 |
| 1.6 | 0.0016 | 0.0016 | B7 |

Target: glucagon receptor (GCGR) (human, UniProt P47871 26-477)
Test: cell-based or functional assay

glucagon receptor (GCGR), sequence (P47871 26-477): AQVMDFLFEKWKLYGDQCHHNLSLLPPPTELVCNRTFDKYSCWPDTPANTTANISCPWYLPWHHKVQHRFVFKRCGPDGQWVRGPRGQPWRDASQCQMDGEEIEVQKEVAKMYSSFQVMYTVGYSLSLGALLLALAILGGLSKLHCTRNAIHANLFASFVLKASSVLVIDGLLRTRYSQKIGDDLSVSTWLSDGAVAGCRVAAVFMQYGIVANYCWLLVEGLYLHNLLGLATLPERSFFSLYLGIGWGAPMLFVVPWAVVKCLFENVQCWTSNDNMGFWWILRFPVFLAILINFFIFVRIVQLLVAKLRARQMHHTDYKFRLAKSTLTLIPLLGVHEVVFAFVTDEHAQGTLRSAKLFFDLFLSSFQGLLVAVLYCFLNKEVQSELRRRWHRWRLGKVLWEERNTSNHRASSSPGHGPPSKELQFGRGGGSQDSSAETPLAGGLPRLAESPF

| cAMP Primary assay EC50 Gluc-R [nM] | cAMP Primary assay EC50 Gluc-R (2nd) [nM] | Binder |
| --- | --- | --- |
| 28 | 28 | B1 |
| 28 | 28 | B2 |
| 28 | 28 | B3 |
| 28 | 28 | B4 |
| 27 | 27 | B5 |
| 28 | 28 | B6 |
| 28 | 28 | B7 |

Target: T1, glucose-dependent insulinotropic …
Test: cell-based or functional assay

| cAMP Primary assay EC50 GIP-R [nM] | cAMP Primary assay EC50 GIP-R (2nd) [nM] | Binder |
| --- | --- | --- |
| 28 | 28 | B1 |
| 28 | 28 | B2 |
| 28 | 28 | B3 |
| 28 | 28 | B4 |
| 27 | 27 | B5 |
| 28 | 28 | B6 |
| 28 | 28 | B7 |

From US20200079833A1 (AstraZeneca / MedImmune, published 2020)
